What was measured:
Assay in all cases: cell_activity
[1] = tested on: Nme2-ABE8e-i1 (Neisseria meningitidis)
[2] = tested on: Nme2-ABE8e-nt (Neisseria meningitidis)
[3] = tested on: Nme2-ABE8e-i1 V106W V106W (in TadA8e) (Neisseria meningitidis)
[4] = A6 editing, mouse liver in vivo, N4CC PAM
[5] = up to, off-target A-to-G, mouse liver

Rosa26 sgRNA ; Rosa26 target
activity [1, 4]: 49% | activity [2, 4]: 34% | activity [3, 4]: 46%

Rosa26 sgRNA ; Rosa26-OT1 off-target
activity [1, 5]: 7% | activity ([2]; off-target A-to-G, mouse liver): 0.2% | activity [3, 5]: 5%

Reference: US20240417707
